Columns and labels:
[1] = target: recombinant UBE3A protein (Homo sapiens (Human)) (UniProt Q05086); assay: Simoa; capture GTX; SBG 75 pm; UBE3A 0.00128 ng/ml
[2] = target: recombinant UBE3A protein (Homo sapiens (Human)) (UniProt Q05086); assay: Simoa; capture GTX; 3E5 0.4 ug/ml; UBE3A 20.0 ng/ml
[3] = target: recombinant UBE3A protein (Homo sapiens (Human)) (UniProt Q05086); assay: Simoa; capture GTX; 3E5 0.1 ug/ml; UBE3A 0.800 ng/ml
[4] = target: recombinant UBE3A protein (Homo sapiens (Human)) (UniProt Q05086); assay: Simoa; capture GTX; 3E5 0.8 ug/ml; UBE3A 0.160 ng/ml
[5] = target: recombinant UBE3A protein (Homo sapiens (Human)) (UniProt Q05086); assay: Simoa; capture GTX; 3E5 0.4 ug/ml; UBE3A 0.00128 ng/ml
[6] = target: recombinant UBE3A protein (Homo sapiens (Human)) (UniProt Q05086); assay: 3-step Simoa, 120 min bead step; capture GTX; UBE3A 500 ng/ml
[7] = target: recombinant UBE3A protein (Homo sapiens (Human)) (UniProt Q05086); assay: Simoa head-to-head, Table 10; capture MS 2F6; UBE3A 20.0 ng/ml
[8] = target: recombinant UBE3A protein (Homo sapiens (Human)) (UniProt Q05086); assay: Simoa; capture GTX + helper beads; 3E5 0.1 ug/ml; UBE3A 0.160 ng/ml
[9] = target: recombinant UBE3A protein (Homo sapiens (Human)) (UniProt Q05086); assay: Simoa; capture GTX + helper beads; 3E5 0.2 ug/ml; UBE3A 0.0320 ng/ml

Sequence of UniProt Q05086 (Q05086 whole entry): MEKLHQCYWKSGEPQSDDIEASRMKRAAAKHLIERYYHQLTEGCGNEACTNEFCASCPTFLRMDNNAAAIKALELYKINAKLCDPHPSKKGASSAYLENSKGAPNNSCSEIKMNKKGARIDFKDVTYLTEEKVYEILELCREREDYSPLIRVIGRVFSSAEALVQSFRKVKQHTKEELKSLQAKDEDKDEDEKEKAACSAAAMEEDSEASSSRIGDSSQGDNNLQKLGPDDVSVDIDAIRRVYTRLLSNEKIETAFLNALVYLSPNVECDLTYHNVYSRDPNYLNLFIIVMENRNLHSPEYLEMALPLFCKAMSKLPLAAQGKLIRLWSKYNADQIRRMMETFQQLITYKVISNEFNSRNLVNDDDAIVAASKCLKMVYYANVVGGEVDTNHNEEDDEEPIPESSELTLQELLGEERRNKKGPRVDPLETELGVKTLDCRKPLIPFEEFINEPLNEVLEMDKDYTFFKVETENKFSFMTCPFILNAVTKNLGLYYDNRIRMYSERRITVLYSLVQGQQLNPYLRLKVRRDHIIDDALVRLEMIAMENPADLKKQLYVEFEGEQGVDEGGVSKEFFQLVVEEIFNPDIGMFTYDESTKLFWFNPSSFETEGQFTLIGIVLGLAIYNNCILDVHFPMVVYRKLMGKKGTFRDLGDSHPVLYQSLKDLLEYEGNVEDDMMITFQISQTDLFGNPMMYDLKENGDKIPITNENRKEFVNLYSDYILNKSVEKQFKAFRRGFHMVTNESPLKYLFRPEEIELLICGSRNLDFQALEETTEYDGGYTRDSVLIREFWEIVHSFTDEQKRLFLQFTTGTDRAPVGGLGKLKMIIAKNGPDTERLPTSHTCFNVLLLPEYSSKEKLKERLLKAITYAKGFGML

In the case of “anti-UBE3A antibody 3E5 (SAB1404508-100 ug, Millipore-Sigma)”, the AEB1 [1] is reported as 0.0046, the AEB2 [1] is reported as 0.0045 and the AEB3 [1] is reported as 0.0047. The Average AEB [1] was 0.0046, the Signal to Background [1] was 1.06 and the AEB1 [2] was 6.82. The AEB2 [2] was 7.9, the AEB3 [2] was 7.67 and the Average AEB [2] was 7.46. It also gave a Signal to Background [2] of 119, an AEB1 [3] of 0.257 and an AEB2 [3] of 0.27. It also gave an AEB3 [3] of 0.245, an Average AEB [3] of 0.257 and a Signal to Background [3] of 13.3. It also gave an AEB1 [4] of 0.235, an AEB2 [4] of 0.263 and an AEB3 [4] of 0.226. For the same substance, the Average AEB [4] was 0.241, the Signal to Background [4] was 1.97 and the AEB1 [5] was 0.0769. For the same substance, the AEB2 [5] was 0.072, the AEB3 [5] was 0.0724 and the Average AEB [5] was 0.0738. For the same substance, the Signal to Background [5] was 1.18, the AEB1 [6] was 16.8 and the AEB2 [6] was 16.8. The Ave AEB [6] was 16.8, the Signal to Background [6] was 9850 and the AEB1 [7] was 0.514. The AEB2 [7] was 0.552, the Ave AEB [7] was 0.533 and the Signal to Background [7] was 39.4. For the same substance, the AEB1 [8] was 0.0417, the AEB2 [8] was 0.0425 and the Average AEB [8] was 0.0421. It also gave a Signal to Background [8] of 7.34, an AEB1 [9] of 0.0226 and an AEB2 [9] of 0.0236. It also gave an Average AEB [9] of 0.0231 and a Signal to Background [9] of 2.39.
